According to article PMC4231769, “The Werner syndrome protein limits the error-prone 8-oxo-dG lesion bypass activity of human DNA polymerase kappa” (Nucleic Acids Research, 2014):

T1: GST-tagged hpol κ^19-526 (human DNA polymerase kappa catalytic core) (human, UniProt Q9UBT6 19-526)
T1 construct: human DNA polymerase kappa (hpol κ), residues 19-526, catalytic core; The pull-downs used GST-tagged hpol κ^19-526; The polymerase assays (functional rows) name hpol κ^19-526 without a GST tag; also called GST-hpol κ; source: recombinant, purified
T1 sequence (looked up): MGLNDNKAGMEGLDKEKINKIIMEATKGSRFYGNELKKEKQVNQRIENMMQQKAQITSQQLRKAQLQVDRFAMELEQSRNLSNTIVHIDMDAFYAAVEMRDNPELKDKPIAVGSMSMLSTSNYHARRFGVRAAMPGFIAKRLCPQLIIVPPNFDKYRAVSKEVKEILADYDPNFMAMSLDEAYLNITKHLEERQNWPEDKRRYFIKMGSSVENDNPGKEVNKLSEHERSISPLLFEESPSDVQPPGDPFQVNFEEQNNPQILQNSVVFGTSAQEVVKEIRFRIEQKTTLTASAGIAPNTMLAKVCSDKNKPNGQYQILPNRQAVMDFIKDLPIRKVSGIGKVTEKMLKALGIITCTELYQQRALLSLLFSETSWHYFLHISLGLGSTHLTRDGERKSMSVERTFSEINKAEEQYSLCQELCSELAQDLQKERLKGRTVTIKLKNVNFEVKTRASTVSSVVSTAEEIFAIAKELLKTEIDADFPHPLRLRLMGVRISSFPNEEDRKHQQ


Molecular target: T1, GST-tagged hpol κ^19-526 (human DNA …)
Test: pull-down; GST-hpol κ^19-526 on glutathione Sepharose beads (~1200 pmol), WRN construct 1 μM (~500 pmol) in 500 μl; 25 mM HEPES pH 7.5, 0.1 M NaCl, 10% glycerol, 5 mM β-ME; 16 h at 4°C; Coomassie-stained SDS-PAGE; specific binding = fraction bound to GST-hpol κ beads divided by fraction bound to GST-coated beads
Details: both partners purified

| Binder | fold bound to GST-hpol κ beads over GST beads [fold] | binding result |
| --- | --- | --- |
| WRN^500-1092 ATPase/RQC construct (domain or fragment, source: E. coli BL21 (DE3) Gold, purified (Ni Sepharose, Glutathione Sepharose, HRV 3C cleavage); not shown: 6xHis, N-terminal, cleaved; GST, N-terminal, cleaved) not shown | ~2 | – |
| WRN^1-333 exo domain (domain or fragment, UniProt Q14191 1-333, looked up, also called WRN exo) MSEKKLETTAQQRKCPEWMNVQNKRCAVEERKACVRKSVFEDDLPFLEFTGSIVYSYDASDCSFLSEDISMSLSDGDVVGFDMEWPPLYNRGKLGKVALIQLCVSESKCYLFHVSSMSVFPQGLKMLLENKAVKKAGVGIEGDQWKLLRDFDIKLKNFVELTDVANKKLKCTETWSLNSLVKHLLGKQLLKDKSIRCSNWSKFPLTEDQKLYAATDAYAGFIIYRNLEILDDTVQRFAINKEEEILLSDMNKQLTSISEEVMDLAKHLPHAFSKLENPRRVSILLKDISENLYSLRRMIIGSTNIETELRPSNNLNLLSFEDSTTGGVQQKQI | – | binds |
| WRN^949-1092 RQC domain (domain or fragment, UniProt Q14191 949-1092, looked up, source: E. coli BL21 (DE3) Gold, purified (Ni Sepharose, Glutathione Sepharose, HRV 3C cleavage); not shown: 6xHis, N-terminal, cleaved; GST, N-terminal, cleaved) MDDSEDTSWDFGPQAFKLLSAVDILGEKFGIGLPILFLRGSNSQRLADQYRRHSLFGTGKDQTESWWKAFSRQLITEGFLVEVSRYNKFMKICALTKKGRNWLHKANTESQSLILQANEELCPKKLLLPSSKTVSSGTKEHCYN | ~3 | – |
